Test results published in patent US20240216553A1, “DEVELOPMENT OF CD163 TARGETING AGENT FOR IMAGING AND THERAPY” (Washington University, priority 2022, published 2024).
Square brackets hold non-standard residues; d marks the D form. Ends that are not written are not given here. Peptide text beside a SMILES is read from it. * marks the point of attachment. X1 = O=C(O)CN1CCN(CC(=O)O)CCN(CC(=O)NCCN2C(=O)CC(*)C2=O)CCN(CC(=O)O)CC1

Columns and labels:
[1] = molecular target: T1, recombinant human CCR2 N-terminus protein (1-42 amino acids) (Homo sapiens, UniProt P41597); test: Peptide ELISA of biotin-labelled peptides; assay type: binding; parameters: dose or concentration left out as unconfirmed; settings: n=3/group
T1 construct: recombinant human CCR2 N-terminus protein (1-42 amino acids)
T1 sequence (P41597 1-42): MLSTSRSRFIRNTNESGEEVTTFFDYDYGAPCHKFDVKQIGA
Procedure: Phage display screening and identification of new CCR2 binding peptides. Using a recombinant human CCR2 N-terminus protein (1-42 amino acids) with a glutathione s-transferase (GST) tag, phage display screening was performed using Ph.D.™-12 peptide library to identify sequences binding to CCR2. After three rounds of phage selections, 50 phages were selected to amplify in E. coli, titer, and for DNA sequencing. Enzyme-linked immunosorbent assay (ELISA) was performed with pre-selected phages and identified five peptide sequences showing potential binding to CCR2. These peptides conjugated with biotin labels were customized for further peptide ELISA assays. […] Therefore, these peptides were selected as CCR2 binding sequences to synthesize peptide-chelator conjugates. To further confirm the specific binding of these peptides, peptide docking studies were performed based on a crystal structure of CCR2 (PDB Id 6GPS) and receptor structures resulting from molecular dynamics simulations of CCR2 and endogenous ligand CCL2 complex using the program AutoDock CrankPep.

[2] = molecular target: CCR2 (human, on THP-1 cells and in human HNSCC tissue) (human) (UniProt P41597); test: in vitro binding assay using THP-1 cells (competitive receptor binding with the non-radioactive counterpart, per paragraph 179)
[3] = human, in vivo
Procedure: Translation of [^64Cu]-DOTA-ECL1i for human Imaging. Animal toxicity studies with non-radioactive Cu-DOTA-ECL1i, dosimetry using [^64Cu]-DOTA-ECL1i in naïve mice were performed and submitted the exploratory investigative new drug (eIND) application to US Food Drug Administration (FDA). Following approvals from FDA, Washington University Radioactive Drug Research Committee (RDRC) and Institutional Review Board (IRB), the human dosimetry studied in six healthy volunteers (3 males, 3 females) who were injected with [^64Cu]-DOTA-ECL1i (5.2 mCi-10.4 mCi) and scanned at 15-30 min, 2-4 h, 20 h, and 44 h post injection was initiated. […] Approximately 80% of the activity was excreted in the urine within 2-4 hours after injection. […] The gender average Effective Dose was 0.064±0.012 rem/mCi (0.073 rem/mCi for females and 0.056 rem/mCi for the males). The critical organ for both genders was the urinary bladder wall, with the highest average estimated dose derived from the female model at 0.45 rad/mCi. Therefore, a dose of 8-10 mCi was injected to each patient in the HNSCC patient studies.

[4] = molecular target: T2, CD163 (human, on CD163 overexpressing U87 cells and in human carotid endarterectomy tissue) (human, UniProt Q86VB7 42-1156); test: competitive cell binding on U87 cells overexpressing CD163; cold ICT-01 displaces ^64Cu-ICT-01
T2 construct: whole, on cells; also called CD163 receptor; human CD163
Procedure: The in vitro cell binding assay of ⁶⁴Cu-ICT-01 was performed in U87 cells, which overexpresses CD163 receptor.

[5] = molecular target: T2, CD163 (human, on CD163 overexpressing …); test: competitive cell binding on CD163 overexpressing U87 cells; 37 kBq ^64Cu-ICT-01 with non-radioactive ICT-01 at 10^-5-10^-10 M, gamma counting
Procedure: An in vitro cell binding assay of ⁶⁴Cu-ICT-01 to CD163 was performed with a CD163 overexpressing U87 cell line. U87 cells seeded on a 12-well tissue culture plate were incubated at room temperature with 37 kBq of ⁶⁴Cu-ICT-01 in the presence of non-radioactive ICT-01 in increasing concentrations (10⁻⁵-10⁻¹⁰ M) in binding media (Dulbecco's Modified Eagle Medium (DMEM): 25 mM HEPES, 0.2% bovine serum albumin (BSA), and 0.3 mM 1,10-phenanthroline). The reaction media was aspirated after incubation. Cells were rinsed with 0.8 mL of ice-cold pH 7.4, 0.2% BSA/0.01 M phosphate buffered saline (PBS) twice and lysed in 0.8 mL of 1 M NaOH for 10 min. Each well was rinsed with 0.8 mL of PBS (1×, pH7.4)/0.2% BSA, which was collected into a plastic tube. The radioactivity in tubes was measured with a gamma counter (Wallac Wizard 1480, Perkin Elmer). The half-maximal inhibitory concentration (IC₅₀) for ⁶⁴Cu-ICT-01 was calculated using the GraphPad Prism (10.0.2).

T2 sequence (Q86VB7 42-1156): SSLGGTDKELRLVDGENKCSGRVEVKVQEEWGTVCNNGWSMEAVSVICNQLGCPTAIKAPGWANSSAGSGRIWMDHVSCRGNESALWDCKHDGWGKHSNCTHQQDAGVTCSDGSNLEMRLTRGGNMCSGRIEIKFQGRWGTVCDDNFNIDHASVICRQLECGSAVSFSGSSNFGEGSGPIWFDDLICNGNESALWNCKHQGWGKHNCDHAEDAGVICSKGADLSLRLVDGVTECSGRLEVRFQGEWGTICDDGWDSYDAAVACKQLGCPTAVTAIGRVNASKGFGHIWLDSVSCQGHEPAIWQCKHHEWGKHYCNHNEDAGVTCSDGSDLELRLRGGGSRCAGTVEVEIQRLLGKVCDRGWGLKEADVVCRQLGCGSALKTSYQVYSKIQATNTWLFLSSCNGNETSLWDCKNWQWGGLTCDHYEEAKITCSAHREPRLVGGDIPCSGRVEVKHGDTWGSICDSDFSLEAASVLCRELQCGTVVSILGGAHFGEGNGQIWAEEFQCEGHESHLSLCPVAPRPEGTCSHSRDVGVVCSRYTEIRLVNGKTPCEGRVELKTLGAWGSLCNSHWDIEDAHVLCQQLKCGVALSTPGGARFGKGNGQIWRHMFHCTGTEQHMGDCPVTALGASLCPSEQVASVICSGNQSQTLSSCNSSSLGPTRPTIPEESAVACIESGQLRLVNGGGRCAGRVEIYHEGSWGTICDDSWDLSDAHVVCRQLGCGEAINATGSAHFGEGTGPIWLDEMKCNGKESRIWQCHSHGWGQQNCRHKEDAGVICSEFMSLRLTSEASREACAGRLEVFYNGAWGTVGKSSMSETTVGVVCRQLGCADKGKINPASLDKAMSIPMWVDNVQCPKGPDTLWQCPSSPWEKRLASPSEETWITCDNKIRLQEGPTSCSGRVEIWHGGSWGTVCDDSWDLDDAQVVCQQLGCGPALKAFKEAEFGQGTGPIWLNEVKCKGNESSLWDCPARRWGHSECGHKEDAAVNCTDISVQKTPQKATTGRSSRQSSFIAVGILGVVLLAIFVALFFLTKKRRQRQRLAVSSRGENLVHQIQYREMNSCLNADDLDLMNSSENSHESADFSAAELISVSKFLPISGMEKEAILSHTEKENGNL

LIPAPGGTPRAG [P21]
binding to CCR2 N-terminus protein compared to GST tag alone and BSA [1]: significantly higher binding

[^64Cu]-DOTA-ECL1i (peptide)
IC50 [2]: 58.3 nM

HWKWLKPWAVNT [P15]
binding to CCR2 N-terminus protein compared to GST tag alone and BSA [1]: significantly higher binding

VDDHYGTIVRNG [P08]
binding to CCR2 N-terminus protein compared to GST tag alone and BSA [1]: significantly higher binding

CC(C)C[C@@H](N)C(=O)NCC(=O)N[C@@H](C(=O)N[C@H](Cc1ccccc1)C(=O)N[C@H](CC(C)C)C(=O)N[C@H](CCCCN)C(=O)N[C@H](CSC1CC(=O)N(CCNC(=O)CN2CCN(CC(=O)O)CCN(CC(=O)O)CCN(CC(=O)O)CC2)C1=O)C(=O)O)[C@H](C)O (stereo partly drawn) [[^64Cu]-DOTA-ECL1i, metal not drawn] (H-[dL]G[dT][dF][dL][dK][dC](X1)-OH; N-terminus and C-terminus assumed)
Effective Dose, females [3]: 0.073 rem/mCi
Effective Dose, males [3]: 0.056 rem/mCi
gender average Effective Dose [3]: 0.064±0.012 rem/mCi
highest average estimated dose, urinary bladder wall (critical organ) [3]: 0.45 rad/mCi

B1: ICT-01 (non-radioactive) (peptide)
peptide: WFWNHGWQWSSK
modifications: not fully specified
notes: also called non-radioactive ICT-01; CD163 targeting peptide ICT-01
IC50 [4]: 26.8 nM
IC50 [5]: 14.4 nM
